Experiments:
[1] = biological target: T1, Bacillus anthracis protective antigen (PA), 83 kDa polypeptide (Bacillus anthracis, UniProt P13423 30-764); assay: SPR
[2] = biological target: T1, Bacillus anthracis protective antigen …; assay: SPR, PA immobilized on CM5 chip

T1 sequence (P13423 30-764 limits assumed): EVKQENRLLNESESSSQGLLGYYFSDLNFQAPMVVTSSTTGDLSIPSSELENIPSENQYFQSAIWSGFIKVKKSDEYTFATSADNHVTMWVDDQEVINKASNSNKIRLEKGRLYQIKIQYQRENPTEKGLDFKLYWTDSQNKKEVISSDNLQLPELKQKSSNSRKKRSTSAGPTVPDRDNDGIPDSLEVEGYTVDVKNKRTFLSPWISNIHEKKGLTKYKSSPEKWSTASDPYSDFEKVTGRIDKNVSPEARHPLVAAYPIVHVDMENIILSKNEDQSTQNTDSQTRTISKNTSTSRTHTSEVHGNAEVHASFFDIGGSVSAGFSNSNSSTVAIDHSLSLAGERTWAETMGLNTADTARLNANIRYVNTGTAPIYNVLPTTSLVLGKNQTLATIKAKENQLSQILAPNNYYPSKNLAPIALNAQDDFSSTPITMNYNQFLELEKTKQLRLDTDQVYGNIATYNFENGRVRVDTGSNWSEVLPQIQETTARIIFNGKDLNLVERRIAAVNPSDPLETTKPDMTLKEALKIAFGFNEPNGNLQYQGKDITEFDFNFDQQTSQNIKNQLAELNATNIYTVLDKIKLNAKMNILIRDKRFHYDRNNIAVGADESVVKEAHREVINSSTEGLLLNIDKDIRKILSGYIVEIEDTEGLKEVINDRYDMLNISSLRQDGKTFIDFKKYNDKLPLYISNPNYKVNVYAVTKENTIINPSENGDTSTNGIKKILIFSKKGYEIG

B1: 1H scFv (scFv)
scFv: DIQMTQTTSSLSASLGDRVTISCRASQDIRNYLNWYQQKPDGTVKLLIYYTSRLLPGVPSRFSGSGSGTDYSLTISNQEQEDIGTYFCQQGNTLPWTGFFFTKLEIRRGGGGSGGGGSGGGGSGGGGSEVQLQQSGPELVKPGASVKISCKIDSGYAFSSSWMNWVKQRFGQGLEWIGRIYPGDGDTNYNGKFKGKATLTADKSSSTAYMQLSSLTSVDSAVYFCARSGLLRYAMDYWGQGTSVTVSS
[1]
  Kd: 0.25 nM
  fold lower equilibrium dissociation constant than 14B7: 48 fold
[2]
  Kd: 0.24 nM
  koff: 0.00017 s⁻¹
  kon: 720000 M⁻¹ s⁻¹

From US7446182 (University of Texas, dated 2008)
